Laboratory results taken from paper PMC6737007.

Tests used:
[1] = molecular target: second voltage-sensing domain (VSD-II) of the human NaV1.4 channel, residues 554-696, with C660S, C661S and C687S (human) (UniProt P35499); assay: NMR titration; 15N-labeled VSD-II titrated with unlabeled Hm-3 in buffer B with DPC/LDAO micelles (11/11 mM), pH 5.5, 45°C, 800 MHz; chemical shifts fitted with two sites on VSD-II and Hm-3 partitioning to micelles (K M = 90 μM)
[2] = molecular target: single A140C mutant of the VSD of KVAP channel; assay: SEC; Superdex 200 in 20-mM Tris-HCl, 150-mM NaCl, pH 5.5, 0.3% DPC, calibrated by Stokes radii; with SDS-PAGE; VSD-KVAP A140C also after 1.5-mM DTT

| Substance | KD (K V), cytoplasmic binding site [1] [µM] | KD (K V), extracellular binding site [1] [µM] | stoichiometry N [2] |
| --- | --- | --- | --- |
| gating modifier toxin Hm-3 from the crab spider Heriaeus melloteei (peptide) | 7 | 11 |  |
| single A140C mutant of the VSD of KVAP channel (domain or fragment) |  |  | 2 |
